25 molecules from publication PMC12167710 (Nature Biotechnology, 2024) can be followed below.

The labels stand for the following.
B1: hRBD16 (antibody, V domains shown)
VH: EVQLVESGGALIQPGGSLRLSCAASGFTVSSNYMYWVRQAPGKGLEWVSLIYPGGSTFYADSVKGRFTISRDNSENTLYLQMNSLRAEDTAVYYCARGPYGDSNWGQGTLVTVSS
VL: DIQMTQSPSSLSASVGDRVTITCQASQDIRNYLNWYQQKPGKAPKLLIYDASNLKTGVPSRFSGSGSGTDFTFTISSLQPEDIATYYCQQYDNLPITFGQGTRLEIK
B2: hRBD10 (antibody, V domains shown)
VH: EVQLVESGGGLVQPGGSLRLSCSASGFTFTTYNMNWVRQAPGKGLEWVSYISSSSSTIYYADSVEGRFTISRDNAKNSLYLQMNSLRDEDTAVYYCARGVGATSYYYHGMDVWGQGTTVSVSS
VL: DIQMTQSPSSLSASVGDRVTITCRASQSIYSYLNWYKQKAGKAPKLLIYAASSLQSGVPSRFSGSGSGTDFTLTIISLQPEDFATYYCQQSYSTPPTFGQGTKVEIK
B3: hRBD1 (antibody, V domains shown)
VH: QVQLVQSGSELKKPGASVKVSCKASGNTLTNHALNWVRQAPGQGLEWMGWINTNTGIPTYAQGFTGRFVFSLDTSVSTAYLQISSLKAEDTAVYYCARVGQTAIAALDDAFDIWGQGTMVTVSS
VL: not shown
B4: hRBD11 (antibody, V domains shown)
VH: QVQLQESGPGLVKPSQTLSLTCTVSGGSISSGGYYWSWIRQHPGKGLEWIGYIFYSGSTYYNPSLKSRVIISVDTSKNQFSLKLSSVTAADTAAYYCARVNRVYGSGSYSLDPWGQGTLVTVSS
VL: QSALTQPASVSGSPGQSITISCTGTSRDVGDYDYVSWYQQHPGKAPKLMIYEGSERPSGVSNRFSGSKSGNTASLTISGLQAEDEADYYCCSYTGSSTSFLFGTGTKVTVL
B5: hRBD14 (antibody, V domains shown)
VH: EVQLVESGGGLVQPGGSLRLSCAASGFSFSSSDMHWVRQATGKGLEWVSGIGTSGDTYYLGSVKGRFTISRDDAKNSFYLQMNSLRAGDTAVYYCARGEMAATGLWYYFDYWGQGTLVTVSS
VL: not shown
B6: mRBD16 (antibody, V domains shown)
VH: QIQLVQSGPELKKPGETVKISCKASGYTLTEYPMHWVKQAPGKGFKWMGMIYTDTGEPTYAEEFKGRFAFSLETSASTAYLQINNLKNEDTATYFCVRAGPSFAMDYWGQGTSVTVSS
VL: NIVLTQSPASLAVSLGQRATISCRASESVDSYGNSFMHWYQQKPGQPPKLLIYLASNLESGVPARFSGSGSRTDFTLTIDPVEADDAATYYCQQNNEDPYTFGGGTKLEIK
B7: mRBD21 (antibody, V domains shown)
VH: B6 VH with L29F, E31K, F68C, A99W, P101G, F103Y, M105L
VL: B6 VL with N1D, L54R, V62I, D80N, A87V, N95S, Y100L, G104A, I110L
B8: mRBD11 (antibody, V domains shown)
VH: QVQLQQSGAELARPGASVKLSCKASGYTFISNGISWVKQRTGQGLEWIGEIYPRNGNTYYNEKFKGKATLTADKSSSTAYMELRSLTSEDSAVFFCARDYYYGNFDYWGQGTTLTVSS
VL: B6 VL
B9: mRBD22 (antibody, V domains shown)
VH: QIQLVQSGPELKKPGETVKISCKASGYTFTEYPMHWVKQAPGKGFKWMGMIYTDTGEPTYAEEFKGRFAFSLETSASTAYLQINNLKNEDTATYFCVRGGYYYFDYWGQGTTLTVSS
VL: B6 VL with Y100W
B10: mRBD15 (antibody, V domains shown)
VH: B6 VH with E10D, L29F, K46Q, A92S, F103Y
VL: B6 VL with L58V, Q93H, N95I
B11: mRBD19 (antibody, V domains shown)
VH: B6 VH with L29F, A99G, S102Y, F103Y
VL: B6 VL with Y100W
B12: mRBD20 (antibody, V domains shown)
VH: B6 VH with F103Y
VL: B6 VL with V13M, Q42L
B13: mRBD18 (antibody, V domains shown)
VH: QIQLVQSGPELKKPGETVKISCKASGYTFTDYPMHWVQQAPGKGFKWMGMIYTDTGEPTYAEEFKGRFAFSLETSASTAYLQINNLKNEDTATYFCVRWAGYFDYWGQGTTLTVSS
VL: DIVLTQSPASLAVSLGQRATISCRASESVDSYGNSFMDWYQQKPGQPPKLLIYRASNLESGIPARFSGSGSRTDFTLIINPVEADDVATYYCQQSNEHPLTFGAGTKLELK
B14: mRBD1 (antibody, V domains shown)
VH: QVQLQQPGAELVKPGASVKVSCKASGYTFTSYWMHWVKQRPGQGLEWIGRIHPSDSDTNYNQKFKGKATLTVDKSSNTAYMQLSSLTSEDSAVYYCAILDCYWYFDVWGTGTTVTVSS
VL: QIVLTQSPAIMSASPGEKVTMTCSASSSVSYMYWYQQKPGSSPRLLIYDTSNLASGVPVRFSGSGSGTSYSLTISRMEAEDAATYYCQQWSSYPLTFGAGTKLELK
B15: mRBD2 (antibody, V domains shown)
VH: B8 VH with N104S
VL: DIQMTQSPSSLSASLGERVSLTCRASREISGYLTWLQQKPDGTIKRLIYAASTLDSGVPKRFSGSRSGSDYSLTISSLESEDFADYYCLQYASYPWTFGGGTKLEIK
B16: mRBD24 (antibody, V domains shown)
VH: EVQLQQSGPDLVKPGASVKISCKASGYTFTDYYMNWVKQSHGKSLEWIGDINPNNGGTYYNQKFKGKATLTVDKSSSTAYMELRSLTSEDSAVYYCARQLRRWGQGTLVTVSA
VL: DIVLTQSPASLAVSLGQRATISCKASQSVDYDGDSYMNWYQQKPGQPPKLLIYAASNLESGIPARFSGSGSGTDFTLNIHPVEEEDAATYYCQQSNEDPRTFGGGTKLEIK
B17: mRBD25 (antibody, V domains shown)
VH: QVQLQQSGPELVKPGASVKISCKASGYAFSNSWMNWVKQRPGKGLEWIGRIYPGDGDTNYNGKFKGKATLTADKSSSTAYMQLSSLTSEDSAVYFCANYYGDYWGQGTTLTVSS
VL: QIVLTQSPALMSASPGEKVTMTCSASSSVSYMYWYQQKPRSSPKPWIYLTSNLASGVPARFSGSGSGTSYSLTISSMEAEDAATYYCQQWSSNPYTFGGGTKLEIK
B18: mRBD23 (antibody, V domains shown)
VH: QVQLQQPGAELVRPGSSVKLSCKASGYTFTSYWMHWVKQRPIQGLEWIGNIDPSDSETHYNQKFKDKATLTVDKSSSTAYMQLSSLTSEDSAVYYCTRPGSLRSRGWYFDVWGTGTTVTVSS
VL: DIVMTQAAPSVPVTPGESVSISCRSSKSLLHSNGNTYLYWFLQRPGQSPQLLIYRMSNLASGVPDRFSGSGSGTAFTLRISRVEAEDVGVYYCMQHLEYPYTFGGGTKLEIK
B19: mRBD3 (antibody, V domains shown)
VH: QVQLQQPGAELVMPGTSVKLSCKASGYIFTSYWMHWVKQRPGQGLEWIGEIDPSDNYTNYNQKFKGKSTLTVDKSSSTAYMQLSSLTSEDSAVYYCARGGLYYYGSSYDAMDYWGQGTSVTVSS
VL: B18 VL with V90A, Y101F, G105S
B20: mRBD4 (antibody, V domains shown)
VH: QVQLQQPGAELVMPGASVKLSCKASGYTFTSYWMHWVKQRPGQGLEWIGEIDPSDSYTNYNQKFKDKSTLTVDKSSSTAYMQLSSLTSEDSAVYYCARGGVYYYGSSHYFDYWGQGTTLTVSS
VL: B18 VL with L51F, Y101F, G105S
B21: mRBD12 (antibody, V domains shown)
VH: QVQLQQSGAELARPGASVKLSCKASGYTFTSYGISWVKQRTGQGLEWIGEIYPRSGNTYYNEKFKGKATLTADKSSSTAYMEVRSLTSEDSAVYFCAREGGYGYVMDYWGQGTSVTVSS
VL: DIQMTQTTSSLSASLGDRVTISCRASQDISNYLNWYQQKPDGTVKLLIYYTSRLHSGVPSRFSGSGSGTDYSFTISNLEQEDIATYFCQQGNTLPWTFGGGTKLEIK
B22: mRBD17 (antibody, V domains shown)
VH: B6 VH
VL: B21 VL with F73L, I83F, W96Y
B23: mRBD10 (antibody, V domains shown)
VH: QVQLKQSGAELVRPGASVKLSCKASGYTFTDYYINWVKQRPGQGLEWIARIYPGSGNTYYNEKFKGKATLTAEKSSSTAYMQLSSLTSEDSAVYFCARDYGSSYVDYFDYWGQGTTLTVSS
VL: B21 VL with F73L, W96L, G100A, I106L
B24: mRBD5 (antibody, V domains shown)
VH: QVQLQQPGAELVKPGASVKVSCKASGYTFTSYWMHWVKQRPGQGLEWIGRIHPSDSDTNYNQKFKGKATLTVDKSSSTAYMQLSSLTSEDSAVYYCAIDWDGDYWGQGTTLTVSS
VL: DIVMSQSPSSLAVSAGEKVTMSCKSSQSLLNSRTRKNYLAWYQQKPGQSPKLLIYWASTRESGVPDRFTGSGSGTDFTLTISSVQAEDLAVYYCKQSYNLWTFGGGTKLEIK
B25: mRBD6 (antibody, V domains shown)
VH: B24 VH with I98M, G102V
VL: B24 VL with W101L, G105A, I111L

Numbering of substitutions follows the chain as printed.

The first test addresses T1, receptor-binding domain (RBD) of the wild-type SARS-CoV-2 spike protein (SARS-CoV-2, UniProt P0DTC2 333-527).
T1 construct: also called SARS-CoV-2 RBD
Description: BLI. The note with it: both partners purified.
One may read the Kd as the concentration at which binding is half-saturated. B1 showed a Kd of less than 0.001 nM.
For the molecule B2, binding was put at a Kd of 0.173 nM. This counts as sub-nanomolar.
The same measure, in the same setting: then B3, with 0.0171 nM.
Same read-out and setting: to B4 belongs 8.87 nM; to B5, 0.618 nM.

Another test concerns the target T1, receptor-binding domain (RBD) of the …. The test can be described thus: ELISA. The note with it: both partners purified. (In general: ELISA stands for enzyme-linked immunosorbent assay.)
As a reminder, the EC50 is the concentration that produces a half-maximal response. B6: the EC50 came out at 0.0895 nM.
B7 returned an EC50 of 0.18 nM.
Regarding B8, the EC50 worked out at 82.3 nM.
Consider B9, for which the EC50 came out at 0.218 nM.
The molecule B10 had an EC50 of 0.124 nM. This EC50 is about 1.8-fold lower than that of the molecule before.
The same measure, in the same setting: then B11, with 0.123 nM.
Same read-out and setting: to B12 belongs 0.153 nM; to B13, 0.222 nM.
For B14, the EC50 is 0.134 nM.
B15 returned an EC50 of 0.0896 nM.
Same read-out and setting: to B16 belongs 0.0635 nM; to B17, 0.0815 nM; to B18, 0.304 nM.
In turn, B19 yielded an EC50 of 0.102 nM.
Same read-out and setting: then B20, with 0.202 nM.
The same measure, in the same setting: then B21, with 0.109 nM; and B22, with 14.8 nM; and B23, with 0.189 nM.
Same read-out and setting: to B24 belongs 0.321 nM.
Molecule B25 yielded an EC50 of 0.393 nM.

For another test the target is unchanged. The test can be described thus: cell-based or functional assay.
Details: not given
The molecule B3 registered an other of 83 ng/mL.
